Where a chain is given by its changes, count along the chain named.
Tests used:
XPGn1 D812A = molecular target: T1, XPGn1 D812A (Homo sapiens, UniProt P28715 1-112+=GT+750-990, D812A;internal_change); test: crystal structure; C1, space group I422, one complex per ASU; EMSA: 2.5 uM DNA, 1-8 uM protein, buffer H (composition not in material) + 15% glycerol, 25 C, 30 min, 7% native PAGE; crystals: complex in 20 mM Tris pH 7.5, 100 mM KCl, grown in 5% PEG 3350, 50 mM sodium citrate pH 4.0, 22 C; conditions: protein: recombinant; tags: N-terminal His-3C cleaved, leaves Gly-Pro-His before Met1; fork: 10 bp duplex, 1 nt 5' arm (strand 1), 1 nt 3' arm (strand 2)
T1 sequence: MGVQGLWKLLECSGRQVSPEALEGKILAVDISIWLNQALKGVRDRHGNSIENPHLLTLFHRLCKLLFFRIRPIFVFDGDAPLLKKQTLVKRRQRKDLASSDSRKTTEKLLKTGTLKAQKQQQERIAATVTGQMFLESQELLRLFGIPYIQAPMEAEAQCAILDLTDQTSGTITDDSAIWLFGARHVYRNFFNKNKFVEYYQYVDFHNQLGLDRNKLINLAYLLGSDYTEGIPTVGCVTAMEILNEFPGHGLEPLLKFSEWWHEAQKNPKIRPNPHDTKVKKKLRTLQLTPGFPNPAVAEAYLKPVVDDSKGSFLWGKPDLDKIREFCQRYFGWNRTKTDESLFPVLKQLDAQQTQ

XPGn3 R823A = molecular target: T2, XPGn3 R823A (Homo sapiens, UniProt P28715 2-112+=GT+750-990, R823A;internal_change); test: EMSA; value from '~10% reduction'; EMSA: 2.5 uM DNA, 1-8 uM protein, buffer H (composition not in material) + 15% glycerol, 25 C, 30 min, 7% native PAGE; crystals: complex in 20 mM Tris pH 7.5, 100 mM KCl, grown in 5% PEG 3350, 50 mM sodium citrate pH 4.0, 22 C; conditions: protein: recombinant; tags: N-terminal His-TEV cleaved; fork: 12 bp duplex, 4 nt 5' arm (strand 1), 5 nt 3' arm (strand 2)
T2 sequence: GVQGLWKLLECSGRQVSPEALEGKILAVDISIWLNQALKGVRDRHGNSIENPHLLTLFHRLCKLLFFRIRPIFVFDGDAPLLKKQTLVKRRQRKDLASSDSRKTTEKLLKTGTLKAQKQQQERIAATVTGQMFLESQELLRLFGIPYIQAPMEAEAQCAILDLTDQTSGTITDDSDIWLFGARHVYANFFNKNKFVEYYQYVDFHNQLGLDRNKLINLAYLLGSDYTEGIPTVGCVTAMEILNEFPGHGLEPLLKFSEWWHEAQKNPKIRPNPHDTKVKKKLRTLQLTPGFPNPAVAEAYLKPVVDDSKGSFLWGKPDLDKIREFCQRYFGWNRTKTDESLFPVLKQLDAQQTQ

XPGn3 K916A = molecular target: T3, XPGn3 K916A (Homo sapiens, UniProt P28715 2-112+=GT+750-990, K916A;internal_change); test: EMSA; minimal or null effect; EMSA: 2.5 uM DNA, 1-8 uM protein, buffer H (composition not in material) + 15% glycerol, 25 C, 30 min, 7% native PAGE; crystals: complex in 20 mM Tris pH 7.5, 100 mM KCl, grown in 5% PEG 3350, 50 mM sodium citrate pH 4.0, 22 C; conditions: protein: recombinant; tags: N-terminal His-TEV cleaved; fork: 12 bp duplex, 4 nt 5' arm (strand 1), 5 nt 3' arm (strand 2)
T3 sequence: T2 sequence with A187R, K280A

XPGn3 K917E = molecular target: T4, XPGn3 K917E (Homo sapiens, UniProt P28715 2-112+=GT+750-990, K917E;internal_change); test: as above; conditions: protein: recombinant; tags: N-terminal His-TEV cleaved; fork: 12 bp duplex, 4 nt 5' arm (strand 1), 5 nt 3' arm (strand 2)
T4 sequence: T2 sequence with A187R, K281E

XPGn3 K913A = molecular target: T5, XPGn3 K913A (Homo sapiens, UniProt P28715 2-112+=GT+750-990, K913A;internal_change); test: as above; conditions: protein: recombinant; tags: N-terminal His-TEV cleaved; fork: 12 bp duplex, 4 nt 5' arm (strand 1), 5 nt 3' arm (strand 2)
T5 sequence: T2 sequence with A187R, K277A

XPGn3 K972E = molecular target: T6, XPGn3 K972E (Homo sapiens, UniProt P28715 2-112+=GT+750-990, K972E;internal_change); test: EMSA; only cleavage mildly lowered; EMSA: 2.5 uM DNA, 1-8 uM protein, buffer H (composition not in material) + 15% glycerol, 25 C, 30 min, 7% native PAGE; crystals: complex in 20 mM Tris pH 7.5, 100 mM KCl, grown in 5% PEG 3350, 50 mM sodium citrate pH 4.0, 22 C; conditions: protein: recombinant; tags: N-terminal His-TEV cleaved; fork: 12 bp duplex, 4 nt 5' arm (strand 1), 5 nt 3' arm (strand 2)
T6 sequence: T2 sequence with A187R, K336E

XPGn3 K828E = molecular target: T7, XPGn3 K828E (Homo sapiens, UniProt P28715 2-112+=GT+750-990, K828E;internal_change); test: as above; conditions: protein: recombinant; tags: N-terminal His-TEV cleaved; fork: 12 bp duplex, 4 nt 5' arm (strand 1), 5 nt 3' arm (strand 2)
T7 sequence: T2 sequence with A187R, K192E

XPGn3 D812A = molecular target: T8, XPGn3 D812A (Homo sapiens, UniProt P28715 2-112+=GT+750-990, D812A;internal_change); test: EMSA; no influence on binding; EMSA: 2.5 uM DNA, 1-8 uM protein, buffer H (composition not in material) + 15% glycerol, 25 C, 30 min, 7% native PAGE; crystals: complex in 20 mM Tris pH 7.5, 100 mM KCl, grown in 5% PEG 3350, 50 mM sodium citrate pH 4.0, 22 C; conditions: protein: recombinant; tags: N-terminal His-TEV cleaved; fork: 12 bp duplex, 4 nt 5' arm (strand 1), 5 nt 3' arm (strand 2)
T8 sequence: T2 sequence with D176A, A187R

B1: DNA-1 splayed-arm (dsDNA)
DNA 1: TTGCAGAGTTC
DNA 2: GAACTCTGCAG
- binding result (XPGn1 D812A): binds

B2: DNA-2 splayed-arm (dsDNA)
DNA 1: TACTTGCAGAGTTCGC
DNA 2: GCGAACTCTGCAGAGCA
- binding signal (XPGn3 R823A): ~90 % of wild-type binding
- binding result (XPGn3 K916A): binds
- binding result (XPGn3 K917E): binds
- binding result (XPGn3 K913A): binds
- binding result (XPGn3 K972E): binds
- binding result (XPGn3 K828E): binds
- binding result (XPGn3 D812A): binds

— article PMC7515719, “The crystal structure of human XPG, the xeroderma pigmentosum group G endonuclease, provides insight into nucleotide excision DNA repair”
